From US20050288489A1 (published 2005)
fluorescein = fluorescein label

B1: fluorescein-labeled AID peptide, fluorescein-GGQQLEEDLRGYNSWITQGE-COOH (peptide)
peptide: fluorescein-GGQQLEEDLRGYNSWITQGE-OH
notes: also called labeled peptide; WT

What was measured:
[1] = target: fluorescein-labeled AID peptide, fluorescein-…-COOH; experiment: fluorescence polarization, equilibrium isotherm titration
[2] = target: fluorescein-labeled AID peptide, fluorescein-…-COOH; experiment: fluorescence polarization, β protein titrated onto 0.5 nM fluorescein-labeled AID peptide
[3] = target: fluorescein-labeled AID peptide, fluorescein-…-COOH; experiment: fluorescence polarization
[4] = target: CaV1.2 (α1C) subunit expressed in Xenopus laevis oocytes by mRNA injection; experiment: cell-based or functional assay
[5] = target: T1, full-length VDCC β2a mutant M246 changed to alanine (rabbit, UniProt P54288-2 1-606); experiment: fluorescence polarization
T1 construct: mature

[6] = target: T2, full-length VDCC β2a mutant L392 changed to alanine (rabbit, UniProt P54288-2 1-606); experiment: fluorescence polarization
T2 construct: mature

Molecule | Kd [1] [nM] | Kd [2] [nM] | Kd [3] [nM] | Steady-state activation, V1/2 (mV) [4] [mV] | Steady-state activation, k (mV) [4] [mV] | Current amplitude (A), I at 20 mV [4] | Current amplitude (A), I at 30 mV [4] | Kd [5] [nM] | Kd [6] [nM]
VDCC β2a linkerless core (domain I plus domain II, removable linker core after TEV digestion) (from UniProt P54288 51-172; P54288 230-449) | 6 to 15 | 6.6 | – | – | – | – | – | – | –
full-length VDCC β2a subunit (rabbit, recombinant, histidine tag removed by TEV protease) (from UniProt P54288 44-632) | 6 to 15 | 16.1 | 26 | – | – | – | – | – | –
full-length rat VDCC β3 subunit protein (recombinant, tag removed) (from UniProt P54287 1-484) | – | – | – | 10 | 10.6 | – | – | – | –
full-length β2a protein as injected into oocytes (P122R) (from UniProt P54288 1-606) | – | – | – | 3.68 | 8.48 | -0.71 | -0.49 | – | –
β2a core protein as injected into oocytes (P122R) (from UniProt P54288 25-422) | – | – | – | 6.84 | 8.43 | -0.87 | -0.7 | – | –
β2a domain I + domain II prepared by proteolysis of full length protein and subsequent purification (injected) (from UniProt P54288 25-146; P54288 204-423) | – | – | – | 3.24 | 9.49 | -0.44 | -0.34 | – | –
β2a domain I protein as injected into oocytes (P122R) (from UniProt P54288 25-146) | – | – | – | 24 | 12.2 | -0.16 | -0.18 | – | –
β3 core protein (from UniProt P54287 21-370) | – | – | – | 10.7 | 10.1 | -0.45 | -0.41 | – | –
β3 subunit expressed in oocytes by mRNA injection | – | – | – | 10.7 | 9.08 | -0.56 | -0.48 | – | –
B1 | – | – | – | – | – | – | – | 1700 | 340
